Measured values as given in patent US20040258656, “High affinity TGFbeta nucleic acid ligands and inhibitors” (published 2004).
Numbering of substitutions follows the chain as printed.

T1: TGFβ2 (transforming growth factor beta 2) (Homo sapiens, UniProt P61812 SEQ:1-112)
T1 sequence: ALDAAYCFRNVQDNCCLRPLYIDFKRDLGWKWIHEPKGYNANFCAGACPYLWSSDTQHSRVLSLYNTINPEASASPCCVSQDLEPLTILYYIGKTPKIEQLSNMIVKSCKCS

B1: 8.40 (ssRNA)
RNA: GGGAGGACGAUGCGGCCCAUUAGUCCUCAUUAGUCCCCUGUGCCCCAGACGACUCGCCCGA
modifications: 2'-F C and U; 2'-OH A and G
B2: 8.48 (ssRNA)
RNA: GGGAGGACGAUGCGGAAGUAACGUUGAAGUAAAAUUCGUUCUCUCGGUAUUGGCCAGACGACUCGCCCGA
modifications: 2'-F C and U; 2'-OH A and G
B3: biased clone 2 (ssRNA)
RNA: GGGAGGACGAUGCGGAGGCGUUAUUAGAGAGUCUGUAUAGCUCUAGCCCCAGACGACUCGCCGA
modifications: 2'-F C and U
B4: biased clone 4 (ssRNA)
RNA: GGGAGGACGAUGCGGGGAGGGUAUUACAGAGUAUGUAUAGCUGUACUCCCAGACGACUCGCCCGA
modifications: 2'-F C and U
B5: biased clone 13 (ssRNA)
RNA: B4 RNA with G16U, A18U, G20A, G21A, C27G, A33C, G43C, U47C
modifications: 2'-F C and U
B6: biased clone 10 (ssRNA)
RNA: B4 RNA with A18G, G19C, G20A, G21U, A26U, A33C, C46G, U47C
modifications: 2'-F C and U
B7: biased clone 28 (ssRNA)
RNA: B4 RNA with G16A, A18G, G20A, G21A, U47C
modifications: 2'-F C and U
B8: biased clone 15 (ssRNA)
RNA: B4 RNA with G17U, A18G, G20A, G21A, A28G, A33C, U42C
modifications: 2'-F C and U
B9: biased clone 29 (ssRNA)
RNA: B4 RNA with G20U, G21U, A30C, A33C, G40U, C46G, U47C
modifications: 2'-F C and U
B10: biased clone 26 (ssRNA)
RNA: B4 RNA with A18U, G21U, G29C, C41G, U47C
modifications: 2'-F C and U
B11: biased clone 7 (ssRNA)
RNA: B4 RNA with G17A, A18G, G21U, C27U, A33C, U36C, G43A, U47C
modifications: 2'-F C and U
B12: biased clone 11 (ssRNA)
RNA: B4 RNA with G17C, A18G, G20A, G21U, U25C, A45G, U47C, C48G
modifications: 2'-F C and U
B13: biased clone 18 (ssRNA)
RNA: B4 RNA with G17U, A18G, G20A, G21U, A30C, A33C, G40U, U47C
modifications: 2'-F C and U
B14: biased clone 14 (ssRNA)
RNA: B4 RNA with G16C, A18G, G20A, G21U, A28U, A33C, U42A, U47C
modifications: 2'-F C and U
B15: biased clone 30 (ssRNA)
RNA: B4 RNA with G16U, G21U, A33C
modifications: 2'-F C and U
B16: biased clone 25 (ssRNA)
RNA: B4 RNA with A18G, G19C, G21U, A33C, C46G, U47C
modifications: 2'-F C and U
B17: biased clone 36 (ssRNA)
RNA: B4 RNA with G21A, C27U, A33C, G43A, U47C
modifications: 2'-F C and U
B18: biased clone 21 (ssRNA)
RNA: B4 RNA with G16A, A18G, G20A, G21U, A33C, U47C
modifications: 2'-F C and U
B19: biased clone 9 (ssRNA)
RNA: B4 RNA with G16U, G20A, A28G, U42C, U47C
modifications: 2'-F C and U
B20: biased clone 35 (ssRNA)
RNA: B4 RNA with A18G, G20A, C27A, A33C, G43U, U47C
modifications: 2'-F C and U
B21: biased clone 34 (ssRNA)
RNA: B4 RNA with A18U, G21U, C27G, A33C, G43C, U47G
modifications: 2'-F C and U
B22: biased clone 22 (ssRNA)
RNA: B4 RNA with G17U, A18G, G20A, G21U, A33C, U47C
modifications: 2'-F C and U
B23: biased clone 19 (ssRNA)
RNA: B4 RNA with G17C, G21U, A33C, C48G
modifications: 2'-F C and U
B24: 8.28 (ssRNA)
RNA: GGGAGGACGAUGCGGAUGAGACCUAAUCAUCGAUCCGCUAUCUAAAACCUCACCCCAGACGACUCGCCCGA
modifications: 2'-F C and U; 2'-OH A and G
B25: 8.23 (ssRNA)
RNA: GGGAGGACGAUGCGGAGACAUCUUUGUCUCGAUUAGUCAUGUUCCUUACCUGCCCCAGACGACUCGCCCGA
modifications: 2'-F C and U; 2'-OH A and G
B26: biased clone 17 (ssRNA)
RNA: GGGAGGACGAUGCGGGGGGACUAUUAGUGAGUCUGUAUAGCACUACCCCCAGACGACUCGCCCGA
modifications: 2'-F C and U
B27: biased clone 20 (ssRNA)
RNA: GGGAGGACGAUGCGGGGUAGAUAUCACUGAGUCUGUAUAGCAGUGUCCCCAGACGACUCGCCCGA
modifications: 2'-F C and U
B28: 8.35 (ssRNA)
RNA: GGGAGGACGAUGCGGAUCCUAUCCUCUGAAUAUCAUUAAAUCAUCUUCUCCGCCCCAGACGACUCGCCCGA
modifications: 2'-F C and U; 2'-OH A and G
B29: 8.2 (ssRNA)
RNA: GGGAGGACGAUGCGGAAGUAACGUUUAAGUAAAAUUCGUUCUCUCGGUAUUUGGCCAGACGACUCGCCCGA
modifications: 2'-F C and U; 2'-OH A and G
B30: 8.3 (ssRNA)
RNA: B29 RNA with U26G, U48C
modifications: 2'-F C and U; 2'-OH A and G
B31: 8.9 (ssRNA)
RNA: B29 RNA with U26G
modifications: 2'-F C and U; 2'-OH A and G

Experiments:
Test in all cases: filter
[1] = target: T1, TGFβ2 (transforming growth factor beta …); details: chain copies: 2 (homodimer, stated)
[2] = target: T1, TGFβ2 (transforming growth factor beta …); details: chain copies: 2 (inferred, homodimer)
[3] = target: T1, TGFβ2 (transforming growth factor beta …); details: chain copies: 2 (inferred, homodimer); remark: listed apart in the source

| Binder | binding signal [2] | binding signal [3] | further results |
| --- | --- | --- | --- |
| B1 |  |  | binding result [1]: no binding |
| GGAGGUUAUUACGAGUCUGUAUAGCGUACUCC (ssRNA, 2'-F C and U) [21a-21(ML-132)] | 1000 x Kd of NX22284 |  |  |
| GGAGGUUAUUAGAGUCUAUAGCUGUACUCC (ssRNA, 2'-F C and U) [21a-21(ML-101)] | 1000 x Kd of NX22284 |  |  |
| AGGUUAUUACAGAGUCUGUAUAGCUGUACUCC (ssRNA, 2'-F C and U; 3'-3' dT cap) [NX22302] | 100 x Kd of NX22284 |  |  |
| GGAGGUUAUACAGAGUCUGUAUAGCUGUACUCC (ssRNA, 2'-F C and U) [21a-21(ML-118)] | 1000 x Kd of NX22284 |  |  |
| GGAGAUAUUACAGAGUCUGUAUAGCUGUACUCC (ssRNA, 2'-F C and U) [21a-21(ML-134)] | 10 x Kd of NX22284 |  |  |
| GGAGGUUAUUAGAGUCUAUAGCCUCC (ssRNA, 2'-F C and U) [21a-21(ML-102)] | 1000 x Kd of NX22284 |  |  |
| B2 |  |  | binding result [1]: binds |
| GAGGUUAUUACAGAGUCUGUAUAGCUGUACUCC (ssRNA, 2'-F C and U; 3'-3' dT cap) [NX22301] | 1 x Kd of NX22284 |  |  |
| GGGGUUAUUAAGAGUCUGUAUAGCUUACCC (ssRNA, 2'-F C and U) [21a-21(ML-138)] | 10000 x Kd of NX22284 |  |  |
| GGAGGUUAUUACAGAGUCUGUAUAGCUGUAC (ssRNA, 2'-F C and U) [21a-21(ML-105)] | 1000 x Kd of NX22284 |  |  |
| GGAGGUUAUUACAGAUCUGUAUAGCUGUACUCC (ssRNA, 2'-F C and U) [21a-21(ML-120)] | 1000 x Kd of NX22284 |  |  |
| GGAGGUUAUUACAGAGUUGUAUAGCUGUACUCC (ssRNA, 2'-F C and U) [21a-21(ML-128)] | 1000 x Kd of NX22284 |  |  |
| GGAGGUUAUUACAGAGUCUGUAUAGC (ssRNA, 2'-F C and U) [21a-21(ML-97)] | 1000 x Kd of NX22284 |  |  |
| B3 |  | 0.6 x Kd of 21a-21 |  |
| B4 |  | 1.4 x Kd of 21a-21 |  |
| B5 |  | 0.2 x Kd of 21a-21 |  |
| B6 |  | 0.3 x Kd of 21a-21 |  |
| B7 |  | 1 x Kd of 21a-21 |  |
| B8 |  | 0.4 x Kd of 21a-21 |  |
| B9 |  | 1 x Kd of 21a-21 |  |
| B10 |  | 3.1 x Kd of 21a-21 |  |
| B11 |  | 0.3 x Kd of 21a-21 |  |
| B12 |  | 0.4 x Kd of 21a-21 |  |
| B13 |  | 1 x Kd of 21a-21 |  |
| B14 |  | 0.4 x Kd of 21a-21 |  |
| B15 |  | 2.4 x Kd of 21a-21 |  |

| Binder | binding signal [2] | binding signal [3] | further results |
| --- | --- | --- | --- |
| B16 |  | 1 x Kd of 21a-21 |  |
| B17 |  | 1.9 x Kd of 21a-21 |  |
| B18 |  | 0.7 x Kd of 21a-21 |  |
| B19 |  | 0.3 x Kd of 21a-21 |  |
| B20 |  | 0.8 x Kd of 21a-21 |  |
| B21 |  | 1.7 x Kd of 21a-21 |  |
| B22 |  | 1.1 x Kd of 21a-21 |  |
| B23 |  | 1 x Kd of 21a-21 |  |
| GGAGGUUAUUACAGAGUCUGUAUAGCGUACUCC (ssRNA, 2'-F C and U) [21a-21(ML-114)] | 1000 x Kd of NX22284 |  |  |
| GGAGGUUAUUACAGAGUCUGUAUAGCUGUCUCC (ssRNA, 2'-F C and U) [21a-21(ML-115)] | 1000 x Kd of NX22284 |  |  |
| GGAGGUUAUUACAAGUUGUAUAGCUGUACUCC (ssRNA, 2'-F C and U) [21a-21(ML-122)] | 1000 x Kd of NX22284 |  |  |
| GGAGGUUAUUACAGAGUCUGUAUAGCUGUA (ssRNA, 2'-F C and U) [21a-21(ML-96)] | 1000 x Kd of NX22284 |  |  |
| B24 |  |  | binding result [1]: no binding |
| B25 |  |  | binding result [1]: no binding |
| B26 |  | 0.8 x Kd of 21a-21 |  |
| B27 |  | 5.7 x Kd of 21a-21 |  |
| GGAGGUUAUUACAGAGUCUGUAUAGCUGUACUCC (ssRNA, 2'-F C and U) [21a-21(ML-95)] | 1 x Kd of NX22284 |  |  |
| GGAGGUUAUUACAGAGUCUGUAUAGCUACUCC (ssRNA, 2'-F C and U) [21a-21(ML-116)] | 1000 x Kd of NX22284 |  |  |
| GGAGGUUAUUACAGAGUCUGUAUAGCUGUACUCCCC (ssRNA, 2'-F C and U) [21a-21(ML-94)] | 0.5 x Kd of NX22284 |  |  |
| B28 |  |  | binding result [1]: no binding |
| GGGGUUAUUCAGAGUCUGUAUAGCUGACCC (ssRNA, 2'-F C and U) [21a-21(ML-136)] | 10000 x Kd of NX22284 |  |  |
| GGAGGUUAUUACAGAGUCUGUAUAGCUGUACUCCCCA (ssRNA, 2'-F C and U) [NX22285] | 2 x Kd of NX22284 |  |  |
| GGGGUUAUUACAGAGUCUGUAUAGCUGUACCC (ssRNA, 2'-F C and U) [21a-21(ML-130)] | 2 x Kd of NX22284 |  |  |
| GGUUAUUACAGAGUCUGUAUAGCUGUACUCC (ssRNA, 2'-F C and U; 3'-3' dT cap) [NX22303] | > 100 x Kd of NX22284 |  |  |
| B29 |  |  | binding result [1]: binds |
| B30 |  |  | binding result [1]: binds |
| B31 |  |  | binding result [1]: binds |
